Test results: US11278600B2, “Human alpha-galactosidase variants” (Codexis, Inc., priority 2014, dated 2022)
Where a chain is given by its changes, count along the chain named.

B1: 129 (protein)
chain: LDNGLARTPTMGWLHWERFMCNLDCQEEPDSCISEKLFMEMAELMVSEGWKDAGYEYLCIDDCWMAPQRDSEGRLQADPQRFPHGIRQLANYVHSKGLKLGIYADVGNKTCAGFPGSFGYYDIDAQTFADWGVDLLKFDGCYCDSLENLADGYKHMSLALNRTGRSIVYSCEWPLYMWPFQKPNYTEIRQYCNHWRNFADIDDSWKSIKSILDWTSFNQERIVDVAGPGGWNDPDMLVIGNFGLSWNQQVTQMALWAIMAAPLFMSNDLRHISPQAKALLQDKDVIAINQDPLGKQGYQLRQGDNFEVWERPLSGLAWAVAMINRQEIGGPRSYTIAVASLGKGVACNPACFITQLLPVKRKLGFYEWTSRLRSHINPTGTVLLQLENTMQGSKDLLL
modifications: Synthetic Polypeptide sequence of Variant No. 129 of mature Human GLA
B2: 133 (protein)
chain: B1 chain with N388R, G392M
modifications: Synthetic Polypeptide sequence of Variant No. 133 of mature Human GLA
B3: 37 (protein)
chain: B1 chain with D105A, G392M
modifications: Synthetic Polypeptide sequence of Variant No. 37 of mature Human GLA
B4: 138 (protein)
chain: B1 chain with Q385H, G392M
modifications: Synthetic Polypeptide sequence of Variant No. 138 of mature Human GLA
B5: 36 (protein)
chain: B1 chain with A350G, G392M
modifications: Synthetic Polypeptide sequence of Variant No. 36 of mature Human GLA
B6: 130 (protein)
chain: B1 chain with G392P
modifications: Synthetic Polypeptide sequence of Variant No. 130 of mature Human GLA
B7: 140 (protein)
chain: B1 chain with Q385L, G392M
modifications: Synthetic Polypeptide sequence of Variant No. 140 of mature Human GLA
B8: 139 (protein)
chain: B1 chain with Q385I, G392M
modifications: Synthetic Polypeptide sequence of Variant No. 139 of mature Human GLA
B9: 134 (protein)
chain: B1 chain with N91Q, G392M
modifications: Synthetic Polypeptide sequence of Variant No. 134 of mature Human GLA
B10: 135 (protein)
chain: B1 chain with Q190S, T369D, G392M
modifications: Synthetic Polypeptide sequence of Variant No. 135 of mature Human GLA
B11: 141 (protein)
chain: B1 chain with Q391G, G392M
modifications: Synthetic Polypeptide sequence of Variant No. 141 of mature Human GLA
B12: 137 (protein)
chain: B1 chain with Q302A, G392M
modifications: Synthetic Polypeptide sequence of Variant No. 13 of mature Human GLA
B13: 142 (protein)
chain: B1 chain with Q80A, G392M
modifications: Synthetic Polypeptide sequence of Variant No. 142 of mature Human GLA
B14: 136 (protein)
chain: B1 chain with Q249A, G392M
modifications: Synthetic Polypeptide sequence of Variant No. 136 of mature Human GLA
B15: 132 (protein)
chain: B1 chain with M39Y, G392M
modifications: Synthetic Polypeptide sequence of Variant No. 132 of mature Human GLA
B16: 131 (protein)
chain: B1 chain with G392S
modifications: Synthetic Polypeptide sequence of Variant No. 131 of mature Human GLA

What was measured:
Type in all cases: biochemical
[1] = HTP-analysis of supernatants pretreated with base (MUGal hydrolysis); conditions: challenge at pH 7.1; activity of the variant/activity of WT GLA (SEQ ID NO: 5); yeast supernatant
In short: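 Supernatants from INVSc1 yeast expressing GLA variants (SD-Ura, 66-84 h, 30° C) were mixed with McIlvaine buffer pH 7.0-8.2 or 200 mM sodium bicarbonate pH 9.1-9.7 and held 1-18 h at 37° C. Residual activity was then measured on MUGal at pH 4.8/4.3, 37° C, 30-180 min, by fluorescence (Ex 355/Em 448 nm).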

[2] = HTP-analysis of yeast culture supernatants, no challenge (MUGal hydrolysis); conditions: activity of the variant/activity of WT GLA (SEQ ID NO: 5), yeast supernatant
In short: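 GLA variants were expressed in INVSc1 yeast grown in SD-Ura broth with glucose at 30° C., and culture supernatants were collected after 66-84 h. Supernatant was mixed with McIlvaine buffer pH 4.8 and MUGal (2 mM stock) in 50 mM citrate, 200 mM KCl, pH 4.6, incubated at 37° C. for 30-180 minutes, then quenched with sodium carbonate.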

[3] = HTP-analysis of supernatants pretreated with acid (MUGal hydrolysis); conditions: challenge at pH 4.2; activity of the variant/activity of WT GLA (SEQ ID NO: 5); yeast supernatant
In short: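 Yeast INVSc1 supernatant, GLA variants; acid challenge: McIlvaine pH 3.3-4.3, 37° C., 1-3 h. Assay: MUGal in McIlvaine pH 4.8 plus citrate pH 4.3, 37° C., 30-180 min, Na2CO3 stop, Ex 355/Em 448 nm.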

| Molecule | Relative Activity of GLA Variants After Challenge at pH 7.1 [1] | Relative Activity of GLA Variants After No Challenge (NC) [2] | Relative Activity of GLA Variants After Challenge at pH 4.2 [3] |
| --- | --- | --- | --- |
| B1 | ++ (++ = >1.5 to 2.5 relative activity over WT GLA (SEQ ID NO: 5)) | + (+ = 0.5 to 1.5 relative activity over WT GLA (SEQ ID NO: 5)) | ++ (++ = >1.5 to 2.5 relative activity over WT GLA (SEQ ID NO: 5)) |
| B2 | + (+ = 0.5 to 1.5 relative activity over WT GLA (SEQ ID NO: 5)) | + (+ = 0.5 to 1.5 relative activity over WT GLA (SEQ ID NO: 5)) | + (+ = 0.5 to 1.5 relative activity over WT GLA (SEQ ID NO: 5)) |
| B3 | + (+ = 0.5 to 1.5 relative activity over WT GLA (SEQ ID NO: 5)) | + (+ = 0.5 to 1.5 relative activity over WT GLA (SEQ ID NO: 5)) | + (+ = 0.5 to 1.5 relative activity over WT GLA (SEQ ID NO: 5)) |
| B4 | ++ (++ = >1.5 to 2.5 relative activity over WT GLA (SEQ ID NO: 5)) | ++ (++ = >1.5 to 2.5 relative activity over WT GLA (SEQ ID NO: 5)) | ++ (++ = >1.5 to 2.5 relative activity over WT GLA (SEQ ID NO: 5)) |
| B5 | ++ (++ = >1.5 to 2.5 relative activity over WT GLA (SEQ ID NO: 5)) | + (+ = 0.5 to 1.5 relative activity over WT GLA (SEQ ID NO: 5)) | ++ (++ = >1.5 to 2.5 relative activity over WT GLA (SEQ ID NO: 5)) |
| B6 | + (+ = 0.5 to 1.5 relative activity over WT GLA (SEQ ID NO: 5)) | + (+ = 0.5 to 1.5 relative activity over WT GLA (SEQ ID NO: 5)) | ++ (++ = >1.5 to 2.5 relative activity over WT GLA (SEQ ID NO: 5)) |
| B7 | ++ (++ = >1.5 to 2.5 relative activity over WT GLA (SEQ ID NO: 5)) | ++ (++ = >1.5 to 2.5 relative activity over WT GLA (SEQ ID NO: 5)) | ++ (++ = >1.5 to 2.5 relative activity over WT GLA (SEQ ID NO: 5)) |
| B8 | + (+ = 0.5 to 1.5 relative activity over WT GLA (SEQ ID NO: 5)) | + (+ = 0.5 to 1.5 relative activity over WT GLA (SEQ ID NO: 5)) | + (+ = 0.5 to 1.5 relative activity over WT GLA (SEQ ID NO: 5)) |
| B9 | + (+ = 0.5 to 1.5 relative activity over WT GLA (SEQ ID NO: 5)) | + (+ = 0.5 to 1.5 relative activity over WT GLA (SEQ ID NO: 5)) | + (+ = 0.5 to 1.5 relative activity over WT GLA (SEQ ID NO: 5)) |
| B10 | ++ (++ = >1.5 to 2.5 relative activity over WT GLA (SEQ ID NO: 5)) | ++ (++ = >1.5 to 2.5 relative activity over WT GLA (SEQ ID NO: 5)) | +++ (+++ = >2.5 relative activity over WT GLA (SEQ ID NO: 5)) |
| B11 | + (+ = 0.5 to 1.5 relative activity over WT GLA (SEQ ID NO: 5)) | + (+ = 0.5 to 1.5 relative activity over WT GLA (SEQ ID NO: 5)) | + (+ = 0.5 to 1.5 relative activity over WT GLA (SEQ ID NO: 5)) |
| B12 | + (+ = 0.5 to 1.5 relative activity over WT GLA (SEQ ID NO: 5)) | + (+ = 0.5 to 1.5 relative activity over WT GLA (SEQ ID NO: 5)) | + (+ = 0.5 to 1.5 relative activity over WT GLA (SEQ ID NO: 5)) |
| B13 | + (+ = 0.5 to 1.5 relative activity over WT GLA (SEQ ID NO: 5)) | + (+ = 0.5 to 1.5 relative activity over WT GLA (SEQ ID NO: 5)) | + (+ = 0.5 to 1.5 relative activity over WT GLA (SEQ ID NO: 5)) |
| B14 | + (+ = 0.5 to 1.5 relative activity over WT GLA (SEQ ID NO: 5)) | + (+ = 0.5 to 1.5 relative activity over WT GLA (SEQ ID NO: 5)) | + (+ = 0.5 to 1.5 relative activity over WT GLA (SEQ ID NO: 5)) |
| B15 | + (+ = 0.5 to 1.5 relative activity over WT GLA (SEQ ID NO: 5)) | + (+ = 0.5 to 1.5 relative activity over WT GLA (SEQ ID NO: 5)) | + (+ = 0.5 to 1.5 relative activity over WT GLA (SEQ ID NO: 5)) |
| B16 | ++ (++ = >1.5 to 2.5 relative activity over WT GLA (SEQ ID NO: 5)) | ++ (++ = >1.5 to 2.5 relative activity over WT GLA (SEQ ID NO: 5)) | + (+ = 0.5 to 1.5 relative activity over WT GLA (SEQ ID NO: 5)) |
